Results published in patent US8551493B2, “Peptide with reduced dimer formation” (Circassia Limited, priority 2007, dated 2013).
Where no end group is shown, it is not given here. [ ]: non-standard residue; d: D form. Abu = CC[C@H](N)C(=O)O

Key:
[1] = Dimer formation of individual peptides and binary peptide mixtures, RP-HPLC; assay type: physicochemical
Experimental: The peptides used in this study have a minimum purity of >90%. The effectiveness of each additive to reduce dimer formation was assessed by size exclusion chromatography (SEC) and RP-HPLC. In SEC, molecules are separated based upon their apparent molecular weight. Smaller molecules can distribute into a greater proportion of the column matrix and are retained for longer than analytes of higher molecular weight. Dimers will elute from the column with an apparent molecular weight approximately twice that of the corresponding monomers. Separation by RP-HPLC separates species based on differences in their hydrophobicities. The amount of dimer formed is determined as a percentage of the total peak area ratio (% PAR) for the chromatogram.
Following the generation of data from the preliminary screening a further piece of work was undertaken to evaluate the ability of matrices containing Cysteine hydrochloride and 1-thioglycerol to inhibit the propensity of individual cysteine containing peptides and mixed pairs of these peptides to dimerize compared to the matrix alone. For each excipient mixtures of all the possible binary peptide combinations were prepared. […] The amount of dimer formed is determined as a percentage of the total peak area ratio (% PAR) for the chromatogram in each case.

PBMCs [2] = assay: IL10 production assay in house dust mite allergic individuals (FIG. 1); assay type: cell-based, human; settings: population of 34 house dust mite allergic individuals
Experimental: A typical cytokine release assay requires 40×10^6 PBMC's per subject. In more detail, 250 μl of a 200 μg/ml solution of the appropriate antigen or peptide concentration is distributed into the appropriate wells of 48 well plates. Plates are the incubated in a humidified 5% CO2 incubator at 37° C. for a maximum of 4 hours. 250 μl of a 5×10^6 cell/ml PBMC suspension is then added to each well and the plates returned to the incubator for 5 days. Following stimulation, samples of culture supernatant are harvested for testing by ELISA or multiplex bead assay according to standard protocols.

PBMCs [3] = assay: Cytokine release assay (IFN-γ, IL-13) on PBMCs from house dust mite allergic individuals; assay type: cell-based, human; settings: number of responders, N = 55 house dust mite allergic individuals; positive = at least 100 pg/ml of cytokine
Source text: The following Table presents results from a cytokine release assay performed on PBMCs taken from a population of house dust mite allergic individuals (N=number of individuals in population). A positive response is considered to be production of at least 100 pg/ml of cytokine.

PBMCs [4] = assay: IFN-gamma production by PBMCs from ragweed allergic individuals (FIG. 2); assay type: cell-based, human; settings: PBMCs from a population of ragweed allergic individuals
Experimental: Using methods equivalent to those in Example 2, these peptides were tested for the ability to induce cytokine production in PBMCs taken from a population of ragweed allergic individuals.

PBMCs [5] = assay: IL-10 cytokine release assay on PBMCs from seven ragweed allergic individuals; assay type: cell-based, human; settings: for IL-10: ragweed allergic, PBMC supernatant
Source text: The following Table presents results from a cytokine release assay performed on PBMCs taken from seven ragweed allergic individuals (A-G).

[6] = T = 0, Control matrix, individual peptide sample
[7] = T = 0, Control matrix, mixed sample MLA01 and MLA05
[8] = T = 1 week, 25° C./60% RH, Control matrix, individual peptide sample
[9] = T = 1 week, 25° C./60% RH, Control matrix, mixed sample MLA01 and MLA04
[10] = T = 1 week, 25° C./60% RH, Control matrix, mixed sample MLA01 and MLA05
[11] = T = 1 week, 25° C./60% RH, Control matrix, mixed sample MLA01 and MLA12
[12] = T = 1 week, 25° C./60% RH, Cysteine matrix, mixed sample MLA01 and MLA12
[13] = T = 72 h, Control matrix, individual peptide sample
[14] = T = 72 h, Control matrix, mixed sample MLA01 and MLA04
[15] = T = 72 h, Control matrix, mixed sample MLA01 and MLA05
[16] = T = 72 h, Control matrix, mixed sample MLA01 and MLA12
[17] = T = 1 week, 25° C./60% RH, Control matrix, mixed sample MLA04 and MLA05
[18] = T = 1 week, 25° C./60% RH, Control matrix, mixed sample MLA04 and MLA12
[19] = T = 72 h, Control matrix, mixed sample MLA04 and MLA05
[20] = T = 72 h, Control matrix, mixed sample MLA04 and MLA12
[21] = T = 1 week, 25° C./60% RH, Control matrix, mixed sample MLA05 and MLA12
[22] = T = 72 h, Control matrix, mixed sample MLA05 and MLA12

CPAVKRDVDLFLT (listed as Felis catus) [MLA01, derived from cat allergen Fel d1]
Percentage peak area ratio (% PAR), dimers formed [1, 6]: 3.85 % PAR | Percentage peak area ratio (% PAR), dimers formed ([1]; T = 0, Control matrix, mixed sample MLA01 and MLA04): 2.92 % PAR | Percentage peak area ratio (% PAR), dimers formed [1, 7]: 2.73 % PAR | Percentage peak area ratio (% PAR), dimers formed ([1]; T = 0, Control matrix, mixed sample MLA01 and MLA12): 2.7 % PAR | Percentage peak area ratio (% PAR), dimers formed ([1]; T = 0, Cysteine matrix, individual peptide sample): 0.49 % PAR | Percentage peak area ratio (% PAR), dimers formed ([1]; T = 0, Cysteine matrix, mixed sample MLA01 and MLA04): 0.48 % PAR | Percentage peak area ratio (% PAR), dimers formed ([1]; T = 0, Cysteine matrix, mixed sample MLA01 and MLA05): 0.73 % PAR | Percentage peak area ratio (% PAR), dimers formed ([1]; T = 0, Cysteine matrix, mixed sample MLA01 and MLA12): 0.2 % PAR | Percentage peak area ratio (% PAR), dimers formed [1, 8]: 66.81 % PAR | Percentage peak area ratio (% PAR), dimers formed [1, 9]: 39.49 % PAR | Percentage peak area ratio (% PAR), dimers formed [1, 10]: 45.59 % PAR | Percentage peak area ratio (% PAR), dimers formed [1, 11]: 40.03 % PAR | Percentage peak area ratio (% PAR), dimers formed ([1]; T = 1 week, 25° C./60% RH, Cysteine matrix, mixed sample MLA01 and MLA04): 0.52 % PAR | Percentage peak area ratio (% PAR), dimers formed ([1]; T = 1 week, 25° C./60% RH, Cysteine matrix, mixed sample MLA01 and MLA05): 0.26 % PAR | Percentage peak area ratio (% PAR), dimers formed [1, 12]: 0.23 % PAR | Percentage peak area ratio (% PAR), dimers formed [1, 13]: 43.81 % PAR | Percentage peak area ratio (% PAR), dimers formed [1, 14]: 35.47 % PAR | Percentage peak area ratio (% PAR), dimers formed [1, 15]: 41.11 % PAR | Percentage peak area ratio (% PAR), dimers formed [1, 16]: 29.62 % PAR

HDM203B: house dust mite Der p1 derived peptide of the HDM203 family tested for IL10 production (DLRQMRTVTPIRMQGGSGS; HDM203B* synthetic peptide)
IL10 production, engineered versus non-engineered peptides (PBMCs [2]): not significantly different

KALPVVLENARILKNCV (listed as Felis catus) [MLA04, derived from cat allergen Fel d1]
Percentage peak area ratio (% PAR), dimers formed [1, 8]: 4.76 % PAR | Percentage peak area ratio (% PAR), dimers formed [1, 9]: 2.71 % PAR | Percentage peak area ratio (% PAR), dimers formed [1, 17]: 2.32 % PAR | Percentage peak area ratio (% PAR), dimers formed [1, 18]: 2.42 % PAR | Percentage peak area ratio (% PAR), dimers formed [1, 13]: 2.51 % PAR | Percentage peak area ratio (% PAR), dimers formed [1, 14]: 1.32 % PAR | Percentage peak area ratio (% PAR), dimers formed [1, 19]: 0.91 % PAR | Percentage peak area ratio (% PAR), dimers formed [1, 20]: 0.44 % PAR

NAQRFGISNYBQI (NAQRFGISNY[Abu]QI) [HDM102B, B=2-aminobutyric acid]
Responders with IFN-g >100 (PBMCs [3]): 15 | Responders with IL-13 >100 (PBMCs [3]): 17

NAQRFGISNYCQI [HDM102]
Responders with IFN-g >100 (PBMCs [3]): 16 | Responders with IL-13 >100 (PBMCs [3]): 13

NAQRFGISNYSQI [HDM102A]
Responders with IFN-g >100 (PBMCs [3]): 14 | Responders with IL-13 >100 (PBMCs [3]): 16

NYBQIYPPNVNKIREA (NY[Abu]QIYPPNVNKIREA) [HDM101B, B=2-aminobutyric acid]
Responders with IFN-g >100 (PBMCs [3]): 1 | Responders with IL-13 >100 (PBMCs [3]): 2

NYCQIYPPNVNKIREA [HDM101]
Responders with IFN-g >100 (PBMCs [3]): 2 | Responders with IL-13 >100 (PBMCs [3]): 1

NYSQIYPPNVNKIREA [HDM101A]
Responders with IFN-g >100 (PBMCs [3]): 4 | Responders with IL-13 >100 (PBMCs [3]): 4

RFGISNYBQIYPPNVNK (RFGISNY[Abu]QIYPPNVNK) [HDM100B, B=2-aminobutyric acid]
Responders with IFN-g >100 (PBMCs [3]): 6 | Responders with IL-13 >100 (PBMCs [3]): 10

RFGISNYCQIYPPNVNK [HDM100]
Responders with IFN-g >100 (PBMCs [3]): 6 | Responders with IL-13 >100 (PBMCs [3]): 6

RFGISNYSQIYPPNVNK [HDM100A]
Responders with IFN-g >100 (PBMCs [3]): 10 | Responders with IL-13 >100 (PBMCs [3]): 8

RGW02: engineered (modified) peptide derived from ragweed pollen major allergen Amb a 1 (GSSQIWIDHSSLSKS; RGW02* synthetic peptide)
IFN-gamma production compared with the non-engineered peptide (PBMCs [4]): does not induce significantly different responses | IL-10 (PBMCs [5]; Subject A): 248.91 pg/mL | IL-10 (PBMCs [5]; Subject B): 227.18 pg/mL | IL-10 (PBMCs [5]; Subject C): 452.45 pg/mL | IL-10 (PBMCs [5]; Subject D): 80.54 pg/mL | IL-10 (PBMCs [5]; Subject E): 310.34 pg/mL | IL-10 (PBMCs [5]; Subject F): 203.12 pg/mL | IL-10 (PBMCs [5]; Subject G): 283.75 pg/mL | level of production of IL-10 compared with the original peptide (RGW02A) (PBMCs [5]; seven ragweed allergic individuals (A-G)): not significantly different

RILKNCVDAKMTEEDKE (listed as Felis catus) [MLA05, derived from cat allergen Fel d1]
Percentage peak area ratio (% PAR), dimers formed [1, 6]: 0.55 % PAR | Percentage peak area ratio (% PAR), dimers formed [1, 7]: 0.35 % PAR | Percentage peak area ratio (% PAR), dimers formed [1, 8]: 1.65 % PAR | Percentage peak area ratio (% PAR), dimers formed [1, 10]: 3.18 % PAR | Percentage peak area ratio (% PAR), dimers formed [1, 17]: 3.26 % PAR | Percentage peak area ratio (% PAR), dimers formed [1, 21]: 1.85 % PAR | Percentage peak area ratio (% PAR), dimers formed ([1]; T = 1 week, 25° C./60% RH, Cysteine matrix, individual peptide sample): 0.21 % PAR | Percentage peak area ratio (% PAR), dimers formed [1, 13]: 1.99 % PAR | Percentage peak area ratio (% PAR), dimers formed [1, 15]: 2.21 % PAR | Percentage peak area ratio (% PAR), dimers formed [1, 19]: 2.25 % PAR | Percentage peak area ratio (% PAR), dimers formed [1, 22]: 8.17 % PAR

TAMKKIQDCYVENGLI (listed as Felis catus) [MLA12, derived from cat allergen Fel d1]
Percentage peak area ratio (% PAR), dimers formed [1, 8]: 1.72 % PAR | Percentage peak area ratio (% PAR), dimers formed [1, 11]: 3.43 % PAR | Percentage peak area ratio (% PAR), dimers formed [1, 18]: 2.13 % PAR | Percentage peak area ratio (% PAR), dimers formed [1, 21]: 1.28 % PAR | Percentage peak area ratio (% PAR), dimers formed [1, 12]: 0.18 % PAR | Percentage peak area ratio (% PAR), dimers formed ([1]; T = 1 week, 25° C./60% RH, Cysteine matrix, mixed sample MLA04 and MLA12): 0.32 % PAR | Percentage peak area ratio (% PAR), dimers formed [1, 13]: 0.46 % PAR | Percentage peak area ratio (% PAR), dimers formed [1, 16]: 2.09 % PAR | Percentage peak area ratio (% PAR), dimers formed [1, 20]: 1.1 % PAR | Percentage peak area ratio (% PAR), dimers formed [1, 22]: 9.78 % PAR | Percentage peak area ratio (% PAR), dimers formed ([1]; T = 72 h, Cysteine matrix, mixed sample MLA01 and MLA12): 0.1 % PAR | Percentage peak area ratio (% PAR), dimers formed ([1]; T = 72 h, Cysteine matrix, mixed sample MLA04 and MLA12): 0.33 % PAR
